Substitutions are numbered along the chain they refer to. Numbers in names are those of the source.
B1: Antibody L12-10 (antibody, human IgG1, kappa)
heavy: not shown
light: EIVLTQSPSSLSASVGDRVTIPCRASLSIGSFLNWYQQRPGEAPKLLIFAASSLRSGVPSRFSGSGSGTDFTLTISSLQPEDFATYYCQQTYTTPYTFGQGTKVEIKRTVAAPSVFIFPPSDEQLKSGTASVVCLLNNFYPREAKVQWKVDNALQSGNSQESVTEQDSKDSTYSLSSTLTLSKADYEKHKVYACEVTHQGLSSPVTKSFNRGEC
notes: Full-length IgG1
B2: Antibody L12-11 (antibody, human IgG1, kappa)
heavy: not shown
light: B1 light with E1D, V3Q, L4M, P22T, R39K, E42K, F49Y
notes: Full-length IgG1
B3: Antibody L12 (antibody, human IgG1, kappa)
heavy: not shown
light: B1 light with S77G, E105D
notes: Full-length IgG1
B4: Antibody L12-9 (antibody, human IgG1, kappa)
heavy: not shown
light: B1 light with E1D, V3Q, L4M, P22T, R39K, E42K, F49Y
notes: Full-length IgG1
B5: Antibody L12-3 (antibody, human IgG1, kappa, V domains shown)
VH: QVQLQESGPGLVKPSETLSLTCTVSGGSLDNYYWSWIRQPPGKGLEWIGYIYYSGNTNYNPSLKSRVTISVDTSKNQFSLKLSSVTAADTAVYYCARGGRFLERYWGQGTLVTVSS
VL: EIVLTQSPSSLSASVGDRVTITCRASLSIGSFLNWYQQKPGKAPKLLIFAASSLRSGVPSRFSGSGSGTDFTLTISSLQPEDFATYYCQQTYTTPYTFGQGTKVEIKR
notes: Full-length IgG1
B6: Antibody L12-5 (antibody, human IgG1, kappa)
heavy: not shown
light: B1 light with P22T, R39K, E42K, F49Y
notes: Full-length IgG1
B7: Antibody L12-7 (antibody, human IgG1, kappa)
heavy: not shown
light: B1 light with P22T, R39K, E42K
notes: Full-length IgG1
B8: Antibody 6Y-G1 (antibody, human IgG1, kappa)
heavy: not shown
light: B1 light with S77G, E105D
notes: also called Antibody L12-6; L12-6
B9: Antibody L12-4 (antibody, human IgG1, kappa)
heavy: not shown
light: B1 light with R39K, E42K
notes: Full-length IgG1
B10: Antibody L12-2 (antibody, human IgG1, kappa, V domains shown)
VH: B5 VH
VL: B5 VL with T22P, K39R, K42E
notes: Full-length IgG1
B11: Antibody L12-1 (antibody, human IgG1, kappa)
heavy: not shown
light: B1 light with P22T, R39K, E42K, F49Y
notes: Full-length IgG1
B12: Antibody 17 (antibody, human IgG1, kappa, V domains shown)
VH: B5 VH with K81R, S83R
VL: DIQMTQSPSSVSASVGDRVTISCRANQAIGTWLAWYQQKPGKAPKLLIYAASTLQSGVPSRFSGSGSGTEFTLTISSLQAEDVAVYYCQQYYTTPLTFGGGTKLEIKR
notes: Full-length IgG1
B13: Antibody L1 (antibody, human IgG1, kappa)
heavy: not shown
light: B1 light with S10T, S77G
notes: Full-length IgG1
B14: Antibody L26 (antibody, human IgG1, kappa)
heavy: not shown
light: B1 light with V104L
notes: Full-length IgG1
B15: Antibody L24 (antibody, human IgG1, kappa)
heavy: not shown
light: B1 light with E1D, V3Q, L4M
notes: Full-length IgG1
B16: Antibody L5 (antibody, human IgG1, kappa)
heavy: not shown
light: B1 light with S77G, Q100P, K103R, V104L
notes: Full-length IgG1
B17: Antibody 18 (antibody, human IgG1, kappa, V domains shown)
VH: QVQLQESGPGLVKPSETLSLTCTVSGGSLDNYYWSWIRQPPGKGLEWIGYIYYSGNTNYNPSLKSRVTISVDTSKNQFSLRLRSVTAADTAVYYCARGRGIFGYWGQGTLVTVSS
VL: B12 VL
notes: Full-length IgG1
B18: Antibody 24 (antibody, human IgG1, kappa, V domains shown)
VH: QVQLQESGPGLVKPSETLSLTCTVSGGSLDNYYWSWIRQPPGKGLEWIGRIYGDSATNYNPSLKSRVTISVDTSKNQFSLRLRSVTAADTAVYYCARGGRIFSGYWGQGTLVTVSS
VL: B12 VL
notes: Full-length IgG1
B19: Antibody 16 (antibody, human IgG1, kappa, V domains shown)
VH: B18 VH with R50Y, G53Y, D54S, S55G, A56N
VL: B12 VL
notes: Full-length IgG1
B20: Antibody 25 (antibody, human IgG1, kappa, V domains shown)
VH: B17 VH with R99G, G100R, Y104H
VL: B12 VL
notes: Full-length IgG1
B21: Antibody 6Y-G4 (antibody, human IgG4 S228P, kappa)
heavy: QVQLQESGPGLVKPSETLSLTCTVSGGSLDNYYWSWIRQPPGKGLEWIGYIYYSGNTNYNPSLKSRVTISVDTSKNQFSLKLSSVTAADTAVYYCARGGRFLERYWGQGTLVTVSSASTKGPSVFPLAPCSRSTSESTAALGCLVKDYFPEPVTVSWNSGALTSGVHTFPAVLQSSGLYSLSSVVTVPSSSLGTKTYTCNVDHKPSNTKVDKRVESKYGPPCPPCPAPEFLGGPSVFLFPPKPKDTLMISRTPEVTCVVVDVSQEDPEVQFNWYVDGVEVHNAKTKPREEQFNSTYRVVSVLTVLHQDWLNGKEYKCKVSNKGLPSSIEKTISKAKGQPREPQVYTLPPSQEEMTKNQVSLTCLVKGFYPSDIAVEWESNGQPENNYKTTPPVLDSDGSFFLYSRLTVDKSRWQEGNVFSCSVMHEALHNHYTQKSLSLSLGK
light: B1 light with S77G, E105D
notes: IgG4P (S228P) form of 6Y-G1
B22: Antibody 17-ScFv (scFv)
scFv: QVQLQESGPGLVKPSETLSLTCTVSGGSLDNYYWSWIRQPPGKGLEWIGYIYYSGNTNYNPSLKSRVTISVDTSKNQFSLRLRSVTAADTAVYYCARGGRFLERYWGQGTLVTVSSGGGGSGGGGSGGGGSDIQMTQSPSSVSASVGDRVTISCRANQAIGTWLAWYQQKPGKAPKLLIYAASTLQSGVPSRFSGSGSGTEFTLTISSLQAEDVAVYYCQQYYTTPLTFGGGTKLEIK
notes: VH C-terminus linked to VL N-terminus; Purified on a protein A column and detected with anti-human IgG Fc-PE, but no Fc or tag is described for it
B23: Antibody 11 (antibody, human IgG1, kappa, V domains shown)
VH: B18 VH with N31G, G53D, D54G, A56G, S103G
VL: B12 VL
notes: Full-length IgG1
B24: Antibody 6 (antibody, human IgG1, kappa, V domains shown)
VH: B18 VH with D30N, N31D, D54N, S55G, A56D, F102L, S103A
VL: B12 VL
notes: Full-length IgG1
B25: Antibody 3-6 (antibody, human IgG1, kappa, V domains shown)
VH: B18 VH with R50Y, G53Y, D54S, S55G, A56N, S103A
VL: B12 VL
notes: Full-length IgG1
B26: Antibody 3 (antibody, human IgG1, kappa, V domains shown)
VH: B18 VH with N31G, D54N, A56T, S103A
VL: B12 VL
notes: Full-length IgG1
B27: Antibody 3-3 (antibody, human IgG1, kappa, V domains shown)
VH: B18 VH with R50Y, G53Y, D54S, S55G, A56N, S103G
VL: B12 VL
notes: Full-length IgG1
B28: Antibody 10 (antibody, human IgG1, kappa, V domains shown)
VH: B18 VH with G53Y, D54N, S55G, A56N, F102L, S103A
VL: B12 VL
notes: Full-length IgG1

These binders were tested against T1, His-tagged human CD47-ECD protein (CD47-His) (human, UniProt Q08722 19-139) (assay: BLI (Fortebio), antibody on protein A sensor, CD47-His in solution).
T1 construct: Expressed in HEK293F cells; also called CD47-His antigen
B1 showed a Kd of 0.195 nM. Binder B2 has a Kd of 0.175 nM. B3 showed a Kd of 0.112 nM. B4 was tested, and the Kd was 0.124 nM. B5 gave a Kd of 0.144 nM. Work on B6 yielded a Kd of 0.138 nM. Work on B7 yielded a Kd of 0.149 nM. B8 gave a Kd of 0.142 nM. For B9, the Kd was 0.107 nM. For B10, the Kd was 0.122 nM. B11 gave a Kd of 0.152 nM.

What follows are binders tested against T1, His-tagged human CD47-ECD protein … (assay: competitive ELISA on coated CD47-His (2 µg/mL); blocked ligand SIRPα-Fc-Bio (0.1 µg/mL), HRP-streptavidin, OD450; value is parameter C of the printed 4-parameter fit).
B12 showed an IC50 of 0.795 µg/mL. Binder B13 has an IC50 of 0.967 µg/mL. B14 gave an IC50 of 1.02 µg/mL. With B15 the IC50 was 1.09 µg/mL. Binder B16 has an IC50 of 1.02 µg/mL.

Target: T1, His-tagged human CD47-ECD protein …
Assay: as above
Remark: another data set of the same source
Work on B17 yielded an IC50 of 1.23 µg/mL. Work on B18 yielded an IC50 of 1.41 µg/mL. B19 gave an IC50 of 0.975 µg/mL. With B20 the IC50 was 1.31 µg/mL. Work on B3 yielded an IC50 of 1.18 µg/mL.

Each binder was assayed against T2, macaque CD47-Fc (macaque, UniProt A0A2K5X523 19-141) (assay: ELISA on coated macaque CD47-Fc; row printed as Affinity (µg/mL)).
T2 construct: Bought reagent; not shown: Fc part of the bought fusion and any linker to it
T2 sequence (A0A2K5X523 entry or part of it limits assumed): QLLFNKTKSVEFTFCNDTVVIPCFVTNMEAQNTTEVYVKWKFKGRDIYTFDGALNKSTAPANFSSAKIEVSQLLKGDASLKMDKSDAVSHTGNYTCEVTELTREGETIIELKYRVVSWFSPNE
For B12, the EC50 was 0.064 µg/mL. B21 was tested, and the EC50 was 0.11 µg/mL. B3 showed an EC50 of 0.066 µg/mL. Binder B8 has an EC50 of 0.083 µg/mL.

The binders below were run against T1, His-tagged human CD47-ECD protein … (assay: competitive ELISA on coated CD47-His (2 µg/mL); blocked ligand SIRPα-Fc-Bio (0.1 µg/mL), HRP-streptavidin, OD450; value is parameter C of the printed 4-parameter fit; inhibition is partial (A 1.373, D 0.661)).
For B22, the IC50 was 0.936 µg/mL.

Target: T1, His-tagged human CD47-ECD protein …
Assay: competitive ELISA on coated CD47-His (2 µg/mL); blocked ligand SIRPα-Fc-Bio (0.1 µg/mL), HRP-streptavidin, OD450; value is parameter C of the printed 4-parameter fit
Remark: another data set of the same source
B23 showed an IC50 of 0.921 µg/mL. B24 was tested, and the IC50 was 1.1 µg/mL. B25 showed an IC50 of 1.12 µg/mL. For B26, the IC50 was 0.844 µg/mL. In the case of B27, the IC50 is reported as 0.939 µg/mL. With B28 the IC50 was 1.06 µg/mL.

Each binder was assayed against T3, CD47 on the cell surface (CHO-CD47 cells, Jurkat cells, Raji cells) (human, UniProt Q08722 19-323) (assay: flow cytometry competition on CHO-CD47 cells; blocked ligand SIRPα-Fc-Bio (6.5 µg/mL), streptavidin-PE; value is parameter C of the printed 4-parameter fit).
T3 construct: whole, on cells; One molecule is used for CD47 on CHO-CD47, Jurkat and Raji cells; also called CHO surface CD47; Jurkat cell surface CD47
With B22 the IC50 was 15.1 µg/mL.

These binders were tested against T3, CD47 on the cell surface (CHO-CD47 …) (assay: flow cytometry on Jurkat cells, goat anti-human IgG Fc-PE, PE-A mean fluorescence).
For B22, the “EC50 (read off the curve)” value was ~1 µg/mL.

Target: T1, His-tagged human CD47-ECD protein …
Assay: competitive ELISA on coated CD47-His (2 µg/mL); blocked ligand SIRPα-Fc-Bio (0.1 µg/mL), HRP-streptavidin, OD450; value is parameter C of the printed 4-parameter fit
Remark: another data set of the same source
With B21 the IC50 was 0.763 µg/mL. With B8 the IC50 was 0.913 µg/mL.

The binders below were run against T3, CD47 on the cell surface (CHO-CD47 …) (assay: flow cytometry on CHO-CD47 cells, goat anti-human IgG Fc-PE, PE-A mean fluorescence).
B22 was tested, and the “EC50 (read off the curve)” value was ~1 µg/mL.
